Columns and labels:
[1] = target: HAdV-D10 fiber protein (human adenovirus D 10 (HAdV-D10)); assay: cryo-EM structure; purified HAdV-D10 virions; symmetry expansion, focused classification and refinement of penton and fiber shaft without symmetry (C1); 4.6 Å global, fiber shaft about 10 Å; AlphaFold3 fiber-penton model fitted as a rigid body
[2] = target: HAdV-D10 penton base (human adenovirus D 10 (HAdV-D10)); assay: as above

With “HAdV-D10 fiber protein (natural protein)” the stoichiometry N [1] was 3.

HAdV-D10 penton base (natural protein) showed a stoichiometry N [2] of 5.

Reference: article PMC13148777
